Experiment: label from the status in PepcDB records
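Further: failed if final PepcDB status was selected cloned or expressed and not failed if soluble or beyond.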

Question: With “MRDRVRWRVLSLPPLAQWREVMAALEVGPEAALAYWHRGFRRKEDLDPPLALLPLKGLREAAALLEEALRQGKRIRVHGDYDADGLTGTAILVRGLAALGADVHPFIPHRLEEGYGVLMERVPEHLEASDLFLTVDCGITNHAELRELLENGVEVIVTDHHTPGKTPPPGLVVHPALTPDLKEKPTGAGVAFLLLWALHERLGLPPPLEYADLAAVGTIADVAPLWGWNRALVKEGLARIPASSWVGLRLLAEAVGYTGKAVEVAFRIAPRINAASRLGEAEKALRLLLTDDAAEAQALVGELHRLNARRQTLEEAMLRKLLPQADPEAKAIVLLDPEGHPGVMGIVASRILEATLRPVFLVAQGKGTVRSLAPISAVEALRSAEDLLLRYGGHKEAAGFAMDEALFPAFKARVEAYAARFPDPVREVALLDLLPEPGLLPQVFRELALLEPYGEGNPEPLFLLFGAPEEARRLGEGRHLAFRLKGVRVLAWKQGDLALPPEVEVAGLLSENAWNGHLAYEVQAVDLRKPEALEGGIAPFAYPLPLLEALARARLGEGVYVPEDNPEGLDYARKAGFRLLPPEEAGLWLGLPPRPVLGRRVEVALGREARARLSAPPVLHTPEARLKALVHRRLLFAYERRHPGLFSEALLAYWEVNRVQEPAGSP” as the sequence, how does the protein production read?
Answer: The protein production was “not failed”.

Question: With “MRDTLPEWYKTKKNICDQMTEEINLWGYDMIETPTLEYYETVGVVSAILDQQLFKLLDQQGNTLVLRPDMTAPIARLVASSLKDRAYPLRLAYQSNVYRAQQNEGGKPAEFEQLGVELIGDGTASADGEVIALMIAALKRAGLSEFKVAIGHVGYVNALLMDVVGNEQRADRLRRFLYEKNYVGYREHVKSLNLSTIDKSRLMNLLSLRGGRAAIEEARGLIQTEKGKTALAEMTKLYEVLESYGASEYVKFDLTLVLHMSYYTGVVFEGYGNRLGVPLCSGGRYDELLSKFHRPAQATGFGVRIDLLVEALNGEIISN” as the sequence, how does the protein production read?
Answer: The protein production was “not failed”.

Question: With “MRDYATTAAGFDLQRTAAATLSGTLQALNACVECCDRHALPGRIALFWEGKDGSRASYTFSELKALSGRFANFLQAQGVRPGDCVAGLLPRTPELLVTILGAWRLGAVYQPLFTAFGPKAIEHRVATAGSKVLVTDAANRDKLDELADPPLAVTVGGPKGQGIRRGDFSFWAELERYPAEFEPVPRSGEDPFLMMFTSGTTGLAKPVPVPLKAILAFVGYLREAVDLRPEDAFWNLADPGWAYGLYYAVAGPLAMGHPTTFYEGPFSVESTCRIIRDYGITNLAGSPTAYRLLMAAGAAAETALKGRLRAVSSAGEPLTPEVIRWFADRLGTTIHDHYGQTELGMVLCNHHALAHPVRVGAAGFACPGHRVVVLDDDLNELPPGQPGILALDRRRSPLMWFPGYQGLETAAFVGDYYLSGDTVELNEDGSISFVGRADDVITTSGYRVGPFDVESALIEHPAVMEAAVIGKPDPERTELVKAFVVLCAGHRPTPELADALQRYVRQRLSAHAYPREIEFLEELPKTPSGKIQRFLLRNQEIARQREAAPRAAAAN” as the sequence, how does the protein production read?
Answer: Its protein production is “failed”.

Question: With “MREESIGRIAKDFLGHEGFQLTEWGGGNLNYLYRVDSTKESYILKYAPPYIRCLGEGYPLSSERLRYEILGLKAANETIPEFAPKLFYVAKEGVVMEYLEGFKLLRQAFIQGEKIPHLAEHLAEMLARFLVKNSFWALNEGERKKLLEQSENSLMRRLSEDYIFTFPFMEHPTNQKNPTSAPSVREIHQDKEWLGAILWLKSRFSTAKEGLLHGDLHTGSLMIKGEQIKMIDFEFSFVGPLSFDLGAILANWLIAYRTHKERGEVGGYSQWLREEMEEFIERFKEQFEFWAGEHGAPQIGIKGYLEALLIEAWGMAGVKIARRILGAAGVEDITSLESPLKEEVERRLLVLSREMTLRAALGIIPIQKGGREAYSWLF” as the sequence, how does the protein production read?
Answer: Its protein production is “failed”.

Question: With “MREGSCPRLARCPGANWGHGRILHTRLHLASLPRPCYFFVTAYINGRETITASCKRSGVSPIPFRPMSPDFPLAPLDLAIIVGYFAVVGIIGYVVAQRIESGEDLFLAGRTLTWGTIGFSLFASNISSTTLIGLAGDAYRTGIAVSNYEWMAGIVLVFIAVFFVPFFIRSGLTTIPEYLEKRFDVRSRKYFSGLTIFTSVIIDTAGGIYAGTLVIKTFFPDLIPGMGPEMDFYVTCFILALIAGVYTAAGGLAAVVYTDILQAVILLVGSVFIAGITFAEFDFSWAQATAQLPEGHLSLMRPMGAEGLPWLGTLVGVPILGFYYWGLNQYIVQRILGARDLDNARWGAMLGGLLKLLPLFIMVLPGAFALQLYPDLGNPDQVFPTLVTDLLPVGIVGLVMAGLIAAIMSTIDSTLNSASTLITIDFVKPRWPDLTPQQVGTVGRVTTIILMLFAAVWAPQIREFPGLWSYIQSVLSYLVPPVVAVFLLGIFWPRTNGSGAFATLLGGHALSIAVFLCAQDGLLFADAPIDLHFTIIAGILTALCLGMLVAFSLTLGPPPAEEEIDDLTWANRVLETGPAMAWYKNYRVHAATVLALTAVMLVVFW” as the sequence, how does the protein production read?
Answer: The protein production was “failed”.

Question: For “MRELLKVTLIVMLVLINAFFVACEFAMVKLRSSRIDTMITEGNNNAKRCKIIKDNLNSYLSACQLGITLCSLALGWMGESTVKELILPIVSVFNLSESIIYTISISISFLIITMMEVVIGELVPKALALYNTEKIMLSTSFLLVGFYKLTYPIIYFFNLSTDLFLKPFGYSQADEVDEPHTGDEIRLLVEESYKSGLIDESEQRLVDNIFEFEEKKIREIMVPRTDMVCIYESDSEEKILAILKEEGVTRYPVCRKNKDDILGFVHIRDLYNQKINENKIELEEILRDIIYISENLTIDKALERIRKEKLQLAIVVDEYGGTSGVVTIEDILEEIVGEIQDEFDKEETHIKKIGAGSYLVDGTESINYINKYFGLDIEHDGFDSIGGWISYMLGSNIKVNQSVTFENYNFTILELDKLRVVKLIIKSVI”, which protein production is on record?
Answer: Its protein production is “failed”.

Question: Which protein production does the source give for “MREPYYKKLLGIKNYLIRKNYPEELEILIPKYVEENKELRGCIDCLSCLSVCPAREVSDYPGPTFMRQLARFAFDKRDEDGREITAYFENIYNCTTCAKCVEVCPKEIDIVHRAIEKLRALAFSKGYLEHHHHHH” here?
Answer: Its protein production is “failed”.

Question: Which protein production does the source give for “MRFIITLFLILQLTTLAFSAHSRDKIGLVLSGGGAKGSAHIGVLKVLEQHNIPIDYVVGTSIGAYVGGMYALGYEVSEIEAIMLGMPWDESYSDFIPRESLAYDKKQHRDRYNISIRLGYSDGEFKVPHGLLLGQSAYQILQRSTDTVRSFDSFDDLAIPYRAVASDIATAKMVVLDSGSINEAMKASAAVPGIVAAVEIDGKTLVDGGITNNMPIDVIKAMGADIVIAIDIGSPLAEQSELTSTVSVLNQLSTILTNNTSLAQKALLTDKDILLRPAIDKLSTTDWSVMPEALKLGEQEAQAQSQALMKLAISDVDYQAYKNQKKLKAKKWFDALPRHITKIKINNNSKVENDIIEKVFAVELGKKLTKEALDLAINRVYALDKFEQVTVEFDDSPEGRIITLTTQAKSWGPNYFDFGFNLKTDFSDQSITSINMSYLMTNVSMNGGRWLNELELGWESLLASEFYQPLDHSHDIYSRARVSFAQDKWEKTSFREELRNEYYQATLALGYDYSFKGIIELGVIAETGDLSLDKPGTDDFDYDSYGSFITFGYDTLDSINFPTNGNKLLIEVKWLKDEYSPQLSDVEKDTATTFALDWRGAIGIRGHTFVGIASFATIDNESDFSVHVTELGGFLNLSGYQEDALIGVHKVFAAVVYQYDLGREIPGGSGLPIYLGTSLEAGNVWGGEDRIRYNDLISSGSIYLGTDTSFGPAVLGMGFATSGEHSFFLSIGKNW” here?
Answer: The protein production was “failed”.

Question: With “MRFSQLLLALCCLTFGAQADVFIKQEDMDLKQALEAIAKDMQLKLVSDIDSKTSSQPITQTLSGSGPMLLSKLSSVFDFDWYTFGGTLTIQSGQQYANYTYKPKNISPSQLLSEMKGAFKTNSTTKIKLVERGHSLLFSGTRKFVNDAMGYASMVDRNQFLEKGNNLEVARIEFNYVSVMDRNIATYDGQVNFPGAQSLIAAAITNIGQFTNLNDEELTSRAYRVKLSQGEKQALEEDEKSTKVQALPGTNALLIRGTQEEVKLAKRIAALIDVKRRQLLFSLKVYDISAERKENLGIDSGWLNGNRGIYDIVVPPFTETKDFVKNFQALYSNGIARSVYETNLVALENQQSQFGKKQTATLTLISDKQVKTEKIEADNSLYVTGRLLPSGQVQARIQYVEESLDEDDNEDSNRPPRVSSQSLNSEVYIQPNQTVILGGFDNTVTQQQESGVPIISSIPLLGELFKYTSESKHKYKRYVSISFQVIE” as the sequence, how does the protein production read?
Answer: Its protein production is “failed”.

Question: With “MRFSYIEPRAKYLISKLSKIWVFYIFLSFVVIGGLVWFMHNAIKSTQDNASSLTIQERLYRHEISRLQVKTDETLKLIKEAKKRLNYNDDIRDVLQGLLNIVPDSITINSIEIDQQSVVVSGKTPSKEAFYFLFQNKLNPMFDYSRAEFFPLSDGWFNFVSTNFSNSLLIKNPESIK” as the sequence, how does the protein production read?
Answer: The protein production was “failed”.

Question: For “MRGANERKTERARGLRQSDNDAEALLWSELRDRRLNGFKFVRQVAVGPYFADFACRDERLVVEVDGSQHQIGSGDARRDKFMVMNGWSVLRFWNTDIFNDRAAVLETIVAVLEKRLVREVRSADLTFIPGEKKR”, which protein production is on record?
Answer: The protein production was “not failed”.
